# Tests used:
# [1] = target: the molecule itself; assay: two-colour scanning fluorescence
# [2] = target: the molecule itself; assay: one-colour scanning fluorescence correlation spectroscopy
# [3] = target: the molecule itself; assay: two-colour scanning fluorescence; remark: listed apart in the source
# [4] = target: the molecule itself; assay: two-colour scanning fluorescence; remark: listed apart in the source
# [5] = target: the molecule itself; assay: one-colour scanning fluorescence correlation spectroscopy; remark: listed apart in the source
# [6] = target: the molecule itself; assay: two-colour scanning fluorescence; remark: listed apart in the source
protein,measurement,setting,value
"APLP1–yellow fluorescent protein (APLP1-YFP) (natural protein, UniProt P51693 39-650, looked up) SLAGGSPGAAEAPGSAQVAGLCGRLTLHRDLRTGRWEPDPQRSRRCLRDPQRVLEYCRQMYPELQIARVEQATQAIPMERWCGGSRSGSCAHPHHQVVPFRCLPGEFVSEALLVPEGCRFLHQERMDQCESSTRRHQEAQEACSSQGLILHGSGMLLPCGSDRFRGVEYVCCPPPGTPDPSGTAVGDPSTRSWPPGSRVEGAEDEEEEESFPQPVDDYFVEPPQAEEEEETVPPPSSHTLAVVGKVTPTPRPTDGVDIYFGMPGEISEHEGFLRAKMDLEERRMRQINEVMREWAMADNQSKNLPKADRQALNEHFQSILQTLEEQVSGERQRLVETHATRVIALINDQRRAALEGFLAALQADPPQAERVLLALRRYLRAEQKEQRHTLRHYQHVAAVDPEKAQQMRFQVHTHLQVIEERVNQSLGLLDQNPHLAQELRPQIQELLHSEHLGPSELEAPAPGGSSEDKGGLQPPDSKDDTPMTLPKGSTEQDAASPEKEKMNPLEQYERKVNASVPRGFPFHSSEIQRDELAPAGTGVSREAVSGLLIMGAGGGSLIVLSMLLLRRKKPYGAISHGVVEVDPMLTLEEQQLRELQRHGYENPTYRFLEERP",stoichiometry N,[1],1.8
same,stoichiometry N,[2],2
same,stoichiometry N,[3],6
same,stoichiometry N,[4],21
same,stoichiometry N,[5],1.9
same,stoichiometry N,[6],3

# Source: paper PMC5706989 (Molecular Biology of the Cell, 2017)
